Test results taken from patent US20200079833A1 (AstraZeneca / MedImmune, published 2020).
Starred links: 1 amine or outer side, 2 acyl side, 3 side chain; linkers in the order of their positions; H or OH if unused. Non-standard residues stand in square brackets, D forms with d. Groups on a side chain read outwards from the residue. Primed or numbered codes have the meaning given here. No end group written: not given here. *: point of attachment. γGlu = O=C(O)[C@H](CCC(=O)[*:2])N[*:1]; Stearoyl = CCCCCCCCCCCCCCCCCC(=O)*; Palmitoyl = CCCCCCCCCCCCCCCC(=O)*; αMeF = C[C@](N)(Cc1ccccc1)C(=O)O; αMeK = C[C@](N)(CCCCN)C(=O)O; αMeS = C[C@](N)(CO)C(=O)O; PEG2′ = not defined here; Aib = CC(C)(N)C(=O)O

T1: glucose-dependent insulinotropic peptide (gastric inhibitory polypeptide) receptor (human, UniProt P48546 22-466)
T1 sequence (looked up): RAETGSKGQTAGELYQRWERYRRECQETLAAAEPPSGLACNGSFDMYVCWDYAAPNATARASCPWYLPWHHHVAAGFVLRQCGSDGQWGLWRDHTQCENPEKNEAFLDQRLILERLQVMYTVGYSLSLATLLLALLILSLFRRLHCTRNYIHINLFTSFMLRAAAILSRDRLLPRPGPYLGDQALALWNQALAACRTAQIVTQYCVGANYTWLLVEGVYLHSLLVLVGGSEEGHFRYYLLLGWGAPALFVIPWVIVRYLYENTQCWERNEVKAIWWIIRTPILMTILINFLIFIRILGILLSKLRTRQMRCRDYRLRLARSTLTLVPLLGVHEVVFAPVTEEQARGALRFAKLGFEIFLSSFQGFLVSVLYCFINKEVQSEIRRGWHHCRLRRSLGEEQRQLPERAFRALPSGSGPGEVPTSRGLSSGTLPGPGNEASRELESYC


How the values were obtained:
Experiment in all cases: cell-based or functional assay
GLP-1 receptor = GLP-1 receptor (human, UniProt P43220 24-463)
glucagon receptor = glucagon receptor (human, UniProt P47871 26-477)
[1] = molecular target: T1, glucose-dependent insulinotropic …

Sequence of glucagon receptor (P47871 26-477): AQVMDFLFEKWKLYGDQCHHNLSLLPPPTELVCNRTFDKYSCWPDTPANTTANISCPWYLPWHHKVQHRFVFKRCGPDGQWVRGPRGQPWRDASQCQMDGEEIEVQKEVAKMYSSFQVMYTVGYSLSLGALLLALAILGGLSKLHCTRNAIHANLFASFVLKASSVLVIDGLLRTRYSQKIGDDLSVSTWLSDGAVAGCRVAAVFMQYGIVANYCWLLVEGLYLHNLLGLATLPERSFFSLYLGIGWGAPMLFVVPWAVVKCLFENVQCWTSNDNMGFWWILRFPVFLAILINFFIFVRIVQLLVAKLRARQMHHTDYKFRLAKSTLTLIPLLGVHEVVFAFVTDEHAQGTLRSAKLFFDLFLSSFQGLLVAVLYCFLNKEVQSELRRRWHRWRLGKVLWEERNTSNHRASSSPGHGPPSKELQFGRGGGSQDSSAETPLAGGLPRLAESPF

Binder	Primary assay EC50 (cAMP), Mean pM GLP-1R (GLP-1 receptor)	Primary assay EC50 (cAMP), n1 (GLP-1 receptor)	Primary assay EC50 (cAMP), n2 (GLP-1 receptor)	Primary assay EC50 (cAMP), n1 (glucagon receptor)	Primary assay EC50 (cAMP), n2 (glucagon receptor)	Primary assay EC50 (cAMP), n1 [1]	Primary assay EC50 (cAMP), n2 [1]
H[Aib]EGS[αMeF]TSDV[αMeS]S[αMeF]LEGEAAK([PEG2′-PEG2′-γGlu-Stearoyl])E[αMeF]IA[αMeF]VV[αMeK]GG-NH2 [SEQ ID NO 33]	100 pM	0.064 nM	0.14 nM	25 nM	25 nM	25 nM	25 nM
H[Aib]EGS[αMeF]TVDV[αMeS]S[αMeF]LEGEAA[αMeK]E[αMeF]IA[αMeF]VV[αMeK]GG-NH2 (N-terminus assumed; SMILES CC[C@H](C)[C@H](NC(=O)[C@](C)(Cc1ccccc1)NC(=O)[C@H](CCC(=O)O)NC(=O)[C@](C)(CCCCN)NC(=O)[C@H](C)NC(=O)[C@H](C)NC(=O)[C@H](CCC(=O)O)NC(=O)CNC(=O)[C@H](CCC(=O)O)NC(=O)[C@H](CC(C)C)NC(=O)[C@](C)(Cc1ccccc1)NC(=O)[C@H](CO)NC(=O)[C@](C)(CO)NC(=O)[C@@H](NC(=O)[C@H](CC(=O)O)NC(=O)[C@@H](NC(=O)[C@@H](NC(=O)[C@](C)(Cc1ccccc1)NC(=O)[C@H](CO)NC(=O)CNC(=O)[C@H](CCC(=O)O)NC(=O)C(C)(C)NC(=O)[C@@H](N)Cc1c[nH]cn1)[C@@H](C)O)C(C)C)C(C)C)C(=O)N[C@@H](C)C(=O)N[C@@](C)(Cc1ccccc1)C(=O)N[C@H](C(=O)N[C@H](C(=O)N[C@@](C)(CCCCN)C(=O)NCC(=O)NCC(N)=O)C(C)C)C(C)C) [SEQ ID NO 30]	88600 pM	80 nM	97 nM	100 nM	100 nM	100 nM	100 nM
H[Aib]EGS[αMeF]TSDV[αMeS]S[αMeF]LEGEAA[αMeK]E[αMeF]IA[αMeF]VV[αMeK]GGK([γGlu-Palmitoyl])-NH2 (N-terminus assumed; SMILES CCCCCCCCCCCCCCCC(=O)N[C@@H](CCC(=O)NCCCC[C@H](NC(=O)CNC(=O)CNC(=O)[C@](C)(CCCCN)NC(=O)[C@@H](NC(=O)[C@@H](NC(=O)[C@](C)(Cc1ccccc1)NC(=O)[C@H](C)NC(=O)[C@@H](NC(=O)[C@](C)(Cc1ccccc1)NC(=O)[C@H](CCC(=O)O)NC(=O)[C@](C)(CCCCN)NC(=O)[C@H](C)NC(=O)[C@H](C)NC(=O)[C@H](CCC(=O)O)NC(=O)CNC(=O)[C@H](CCC(=O)O)NC(=O)[C@H](CC(C)C)NC(=O)[C@](C)(Cc1ccccc1)NC(=O)[C@H](CO)NC(=O)[C@](C)(CO)NC(=O)[C@@H](NC(=O)[C@H](CC(=O)O)NC(=O)[C@H](CO)NC(=O)[C@@H](NC(=O)[C@](C)(Cc1ccccc1)NC(=O)[C@H](CO)NC(=O)CNC(=O)[C@H](CCC(=O)O)NC(=O)C(C)(C)NC(=O)[C@@H](N)Cc1c[nH]cn1)[C@@H](C)O)C(C)C)[C@@H](C)CC)C(C)C)C(C)C)C(N)=O)C(=O)O) [SEQ ID NO 32]	27 pM	0.036 nM	0.018 nM	90 nM	90 nM	90 nM	90 nM
H[Aib]EGS[αMeF]TSDV[αMeS]S[αMeF]LEGEAAK([γGlu-Palmitoyl])E[αMeF]IA[αMeF]VV[αMeK]GG-NH2 (N-terminus assumed; SMILES CCCCCCCCCCCCCCCC(=O)N[C@@H](CCC(=O)NCCCC[C@H](NC(=O)[C@H](C)NC(=O)[C@H](C)NC(=O)[C@H](CCC(=O)O)NC(=O)CNC(=O)[C@H](CCC(=O)O)NC(=O)[C@H](CC(C)C)NC(=O)[C@](C)(Cc1ccccc1)NC(=O)[C@H](CO)NC(=O)[C@](C)(CO)NC(=O)[C@@H](NC(=O)[C@H](CC(=O)O)NC(=O)[C@H](CO)NC(=O)[C@@H](NC(=O)[C@](C)(Cc1ccccc1)NC(=O)[C@H](CO)NC(=O)CNC(=O)[C@H](CCC(=O)O)NC(=O)C(C)(C)NC(=O)[C@@H](N)Cc1c[nH]cn1)[C@@H](C)O)C(C)C)C(=O)N[C@@H](CCC(=O)O)C(=O)N[C@@](C)(Cc1ccccc1)C(=O)N[C@H](C(=O)N[C@@H](C)C(=O)N[C@@](C)(Cc1ccccc1)C(=O)N[C@H](C(=O)N[C@H](C(=O)N[C@@](C)(CCCCN)C(=O)NCC(=O)NCC(N)=O)C(C)C)C(C)C)[C@@H](C)CC)C(=O)O) [SEQ ID NO 34]	43 pM	0.039 nM	0.048 nM	93 nM	93 nM	93 nM	93 nM
HXEGTFTSDVSSYLEGQAAKEFIAWLVKGRK (Aib 2; K(ε-(PEG)2-(PEG)2-γE-Stearate) after R30; C-terminal amide) [SEQ ID NO 6]	5.1 pM	0.0048 nM	0.0053 nM	22 nM	22 nM	22 nM	22 nM

Now from value to binder:

Primary assay EC50 (cAMP), Mean pM GLP-1R (GLP-1 receptor)	Primary assay EC50 (cAMP), n1 (GLP-1 receptor)	Primary assay EC50 (cAMP), n2 (GLP-1 receptor)	Primary assay EC50 (cAMP), n1 (glucagon receptor)	Primary assay EC50 (cAMP), n2 (glucagon receptor)	Primary assay EC50 (cAMP), n1 [1]	Primary assay EC50 (cAMP), n2 [1]	Binder
72 pM	0.062 nM	0.082 nM	25 nM	25 nM	25 nM	25 nM	H[Aib]EGS[αMeF]TSDVSS[αMeF]LEGEAAKE[αMeF]IA[αMeF]VVKGGK([PEG2′-PEG2′-γGlu-Stearoyl])-NH2 [SEQ ID NO 38]
44200 pM	63 nM	25 nM	84 nM	25 nM	84 nM	25 nM	H[Aib]EGS[αMeF]TDDV[αMeS]S[αMeF]LEGEAAK([PEG2′-PEG2′-γGlu-Stearoyl])E[αMeF]IA[αMeF]VV[αMeK]GG-NH2 [SEQ ID NO 36]
4500 pM	7.3 nM	1.7 nM	92 nM	28 nM	92 nM	28 nM	H[Aib]EGS[αMeF]TDDV[αMeS]S[αMeF]LEGEAAK([γGlu-Palmitoyl])E[αMeF]IA[αMeF]VV[αMeK]GG-NH2 (N-terminus assumed; SMILES CCCCCCCCCCCCCCCC(=O)N[C@@H](CCC(=O)NCCCC[C@H](NC(=O)[C@H](C)NC(=O)[C@H](C)NC(=O)[C@H](CCC(=O)O)NC(=O)CNC(=O)[C@H](CCC(=O)O)NC(=O)[C@H](CC(C)C)NC(=O)[C@](C)(Cc1ccccc1)NC(=O)[C@H](CO)NC(=O)[C@](C)(CO)NC(=O)[C@@H](NC(=O)[C@H](CC(=O)O)NC(=O)[C@H](CC(=O)O)NC(=O)[C@@H](NC(=O)[C@](C)(Cc1ccccc1)NC(=O)[C@H](CO)NC(=O)CNC(=O)[C@H](CCC(=O)O)NC(=O)C(C)(C)NC(=O)[C@@H](N)Cc1c[nH]cn1)[C@@H](C)O)C(C)C)C(=O)N[C@@H](CCC(=O)O)C(=O)N[C@@](C)(Cc1ccccc1)C(=O)N[C@H](C(=O)N[C@@H](C)C(=O)N[C@@](C)(Cc1ccccc1)C(=O)N[C@H](C(=O)N[C@H](C(=O)N[C@@](C)(CCCCN)C(=O)NCC(=O)NCC(N)=O)C(C)C)C(C)C)[C@@H](C)CC)C(=O)O) [SEQ ID NO 37]
3260 pM	4.9 nM	1.7 nM	89 nM	27 nM	89 nM	27 nM	H[Aib]EGS[αMeF]TDDV[αMeS]S[αMeF]LEGEAA[αMeK]E[αMeF]IA[αMeF]VV[αMeK]GGK([γGlu-Palmitoyl])-NH2 (N-terminus assumed; SMILES CCCCCCCCCCCCCCCC(=O)N[C@@H](CCC(=O)NCCCC[C@H](NC(=O)CNC(=O)CNC(=O)[C@](C)(CCCCN)NC(=O)[C@@H](NC(=O)[C@@H](NC(=O)[C@](C)(Cc1ccccc1)NC(=O)[C@H](C)NC(=O)[C@@H](NC(=O)[C@](C)(Cc1ccccc1)NC(=O)[C@H](CCC(=O)O)NC(=O)[C@](C)(CCCCN)NC(=O)[C@H](C)NC(=O)[C@H](C)NC(=O)[C@H](CCC(=O)O)NC(=O)CNC(=O)[C@H](CCC(=O)O)NC(=O)[C@H](CC(C)C)NC(=O)[C@](C)(Cc1ccccc1)NC(=O)[C@H](CO)NC(=O)[C@](C)(CO)NC(=O)[C@@H](NC(=O)[C@H](CC(=O)O)NC(=O)[C@H](CC(=O)O)NC(=O)[C@@H](NC(=O)[C@](C)(Cc1ccccc1)NC(=O)[C@H](CO)NC(=O)CNC(=O)[C@H](CCC(=O)O)NC(=O)C(C)(C)NC(=O)[C@@H](N)Cc1c[nH]cn1)[C@@H](C)O)C(C)C)[C@@H](C)CC)C(C)C)C(C)C)C(N)=O)C(=O)O) [SEQ ID NO 35]
